Laboratory results published in article PMC2778552.

Target: T1, human recombinant aromatase (human) (UniProt P11511)
T1 sequence: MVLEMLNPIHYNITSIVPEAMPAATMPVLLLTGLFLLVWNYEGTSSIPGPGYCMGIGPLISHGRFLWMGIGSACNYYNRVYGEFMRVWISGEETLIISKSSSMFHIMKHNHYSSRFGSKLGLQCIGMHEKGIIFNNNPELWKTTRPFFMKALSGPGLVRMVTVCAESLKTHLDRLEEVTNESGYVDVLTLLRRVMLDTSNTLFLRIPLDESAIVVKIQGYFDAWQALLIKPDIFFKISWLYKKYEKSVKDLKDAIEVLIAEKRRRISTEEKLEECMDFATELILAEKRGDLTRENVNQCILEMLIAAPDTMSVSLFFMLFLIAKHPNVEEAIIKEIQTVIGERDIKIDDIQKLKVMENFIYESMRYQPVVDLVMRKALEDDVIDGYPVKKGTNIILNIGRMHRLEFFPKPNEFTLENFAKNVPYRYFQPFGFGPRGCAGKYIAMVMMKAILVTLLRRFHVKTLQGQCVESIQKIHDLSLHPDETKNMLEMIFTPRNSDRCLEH

Km of aromatase for reductase from Lineweaver–Burk plots; tritiated water release from [1β-3H(N)]-androstenedione, 50 nM pure aromatase, reductase 1 nM to 20 nM, androstenedione 10 nM to 500 nM, 37°C: 1 nM
B1: NADPH-cytochrome P450 reductase (enzyme)
chain: MGDSHEDTSATMPEAVAEEVSLFSTTDMVLFSLIVGVLTYWFIFRKKKEEIPEFSKIQTTAPPVKESSFVEKMKKTGRNIIVFYGSQTGTAEEFANRLSKDAHRYGMRGMSADPEEYDLADLSSLPEIDKSLVVFCMATYGEGDPTDNAQDFYDWLQETDVDLTGVKFAVFGLGNKTYEHFNAMGKYVDQRLEQLGAQRIFELGLGDDDGNLEEDFITWREQFWPAVCEFFGVEATGEESSIRQYELVVHEDMDVAKVYTGEMGRLKSYENQKPPFDAKNPFLAAVTANRKLNQGTERHLMHLELDISDSKIRYESGDHVAVYPANDSALVNQIGEILGADLDVIMSLNNLDEESNKKHPFPCPTTYRTALTYYLDITNPPRTNVLYELAQYASEPSEQEHLHKMASSSGEGKELYLSWVVEARRHILAILQDYPSLRPPIDHLCELLPRLQARYYSIASSSKVHPNSVHICAVAVEYEAKSGRVNKGVATSWLRAKEPAGENGGRALVPMFVRKSQFRLPFKSTTPVIMVGPGTGIAPFMGFIQERAWLREQGKEVGETLLYYGCRRSDEDYLYREELARFHKDGALTQLNVAFSREQAHKVYVQHLLKRDREHLWKLIHEGGAHIYVCGDARNMAKDVQNTFYDIVAEFGPMEHTQAVDYVKKLMTKGRYSLDVWS
